Measurements reported in patent US20230348616A1 (MIE UNIVERSITY, published 2023).
Read-outs that look alike come from different tables or passages of the source.

Legend:
[1] = target: T1, HLA-A*0201/β2-microglobulin/NY-ESO peptide complex (human, biotinylated with E. coli biotin ligase at the added recognition sequence (biotinylated form used in the ELISA)); test: SPR (Biacore T200), scFv captured by anti-His antibody, HLA/NY-ESO as analyte, single cycle kinetics
T1 construct: also called HLA/NY-ESO; HLA-A2/NY-ESO
Experimental: With the use of Biacore T200, anti-HLA/NY-ESO scFv was captured as a ligand by the immobilized anti-His antibody, and the antigen was assayed as an analyte. As the antigen, HLA/NY-ESO prepared in 1)-1 was used. The anti-His antibody (His Capture kit, GE Healthcare) was immobilized on Sensor Chip CM5 (GE Healthcare) in accordance with the instructions of the kit. The anti-HLA/NY-ESO scFv constructs diluted to 0.5 μg/ml in HBS-EP+ (GE Healthcare) to be evaluated were brought into contact therewith at 10 μl/min for 60 seconds for immobilization. Thereafter, the samples were added to the HLA/NY-ESO analytes diluted to various levels with HBS-EP+ at a flow rate of 30 μl/min for 120 seconds and dissociation was assayed for 600 seconds.

[2] = target: T2, HLA-A2 / homologous peptide IL20RB complex on T2 cells (human); test: flow cytometry on peptide-pulsed T2 cells, scFv 100 nM;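 note: scFv binding read as gMFI and normalized to the level of HLA/peptide complex displayed on T2 cells, with homologous 9-mer peptides used to probe specificity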
T2 construct: whole, on cells; also called T2 cells supplemented with homologous peptide IL20RB
Experimental: (§1) The cells were washed 2 times in PBS containing 5% FBS, immobilized with Mildform 10 N (FUJIFILM Wako Pure Chemical Corporation) overnight, and resuspended in PBS containing 5% FBS. The cell suspensions were subjected to detection using a flow cytometer (CantoII, Becton Dickinson). […] The standardized gMFI indicating the binding affinity of each scFv standardized with the amount of the HLA/peptide complex on the T2 cells was determined in accordance with the following equation.
(§2) The 9-mer peptide shown in FIG. 2A was selected as a homologous peptide for evaluation of binding specificity of anti-HLA/NY-ESO scFv. […] The standardized gMFI indicating the binding affinity of each scFv standardized with the amount of the HLA/peptide complex on the T2 cells was determined in accordance with the following equation.

gp100 [3] = target: T3, gp100 (human); test: as above
T3 construct: cell surface;cell surface complex; also called HLA-A2 / gp100 peptide complex on T2 cells
Experimental: as §1, §2

[4] = target: T4, HLA-A2/NY-ESO peptide complex presented on cells (human); test: as above
T4 construct: whole, on cells; also called HLA/NY-ESO; T2 cells supplemented with the NY-ESO peptide
Experimental: as §1, §2

[5] = target: T5, HLA-A2 / homologous peptide DOLPP1 complex on T2 cells (human); test: as above
T5 construct: whole, on cells; also called T2 cells supplemented with homologous peptide DOLPP1
Experimental: as §1, §2

[6] = target: T6, HLA-A2 / homologous peptide P2RY8 complex on T2 cells (human); test: as above
T6 construct: whole, on cells; also called T2 cells supplemented with homologous peptide P2RY8
Experimental: as §1, §2

[7] = target: T7, HLA-A2 / homologous peptide PRKD2 complex on T2 cells (human); test: as above
T7 construct: whole, on cells; also called T2 cells supplemented with homologous peptide PRKD2
Experimental: as §1, §2

[8] = target: T8, HLA-A2 / homologous peptide CD163 complex on T2 cells (human); test: as above
T8 construct: whole, on cells; also called T2 cells supplemented with homologous peptide CD163
Experimental: as §1, §2

gp100 [9] = target: T3, gp100; test: as above; remark: listed apart in the source
Experimental: (§3) The resultant was washed two times in the AIM-V medium containing 20% FBS, the concentration thereof was adjusted to an adequate level with PBS containing 5% FBS, the LIVE/DEAD Fixable Dead Cell Stain Kit (Thermo Fisher Scientific) was added thereto, and the resultant was allowed to stand at 4° C. for 30 minutes. The cells were washed 2 times in PBS containing 5% FBS, the washed cells were divided into two groups, the cells in PBS containing 5% FBS were seeded on a 96-well U-bottom microplate at 10⁵ cells/well, and the plate was subjected to centrifugation, followed by removal of the supernatant. Anti-HLA/NY-ESO scFv diluted to 100 nM with PBS containing 5% FBS was added at 25 μl/well to one of the divided cells, and the resultant was allowed to stand at 4° C. for 30 minutes. The cells were washed 2 times in PBS containing 5% FBS, Penta-His Alexa Fluor488 (QIAGEN) diluted in PBS containing 5% FBS was added at 25 μl/well, and the resultant was allowed to stand at 4° C. for 30 minutes. The cells were washed 2 times in PBS containing 5% FBS, Anti-mouse-IgG Alexa Fluor488 (Thermo Fisher Scientific) diluted in PBS containing 5% FBS was added at 25 μl/well, and the resultant was allowed to stand at 4° C. for 30 minutes. The cells were washed 2 times in PBS containing 5% FBS, immobilized with Mildform 10 N (FUJIFILM Wako Pure Chemical Corporation) overnight, and resuspended in PBS containing 5% FBS. […] The cells were washed 2 times in PBS containing 5% FBS, immobilized with Mildform 10 N (FUJIFILM Wako Pure Chemical Corporation) overnight, and resuspended in PBS containing 5% FBS. The cell suspensions were subjected to detection using a flow cytometer (CantoII, Becton Dickinson). […] The standardized gMFI indicating the binding affinity of each scFv standardized with the amount of the HLA/peptide complex on the T2 cells was determined in accordance with the following equation.

[10] = target: T4, HLA-A2/NY-ESO peptide complex presented …; test: as above; remark: listed apart in the source
Experimental: as §3

[11] = target: T2, HLA-A2 / homologous peptide IL20RB …; test: flow cytometry, peptide-pulsed T2 cells
[12] = target: T5, HLA-A2 / homologous peptide DOLPP1 …; test: flow cytometry, peptide-pulsed T2 cells
[13] = target: T6, HLA-A2 / homologous peptide P2RY8 …; test: flow cytometry, peptide-pulsed T2 cells
[14] = target: T7, HLA-A2 / homologous peptide PRKD2 …; test: flow cytometry, peptide-pulsed T2 cells
[15] = target: T8, HLA-A2 / homologous peptide CD163 …; test: flow cytometry, peptide-pulsed T2 cells

Binder | Kd [1] [nM] | standardized gMFI [2] | standardized gMFI (gp100 [3]) | standardized gMFI [4] | standardized gMFI [5] | standardized gMFI [6] | standardized gMFI [7] | standardized gMFI [8] | standardized gMFI (gp100 [9]) | standardized gMFI [10] | binding result [11] | binding result [12] | binding result [13] | binding result [14] | binding result [15] | binding result [2] | binding result [5] | binding result [6] | binding result [8]
NYC-0003 (scFv, not shown: small tags and cut ends, also called 3M4E5 scFv; NYC-0003 tag adduct) scFv: EVQLLESGGGLVQPGGSLRLSCAASGFTFSTYQMSWVRQAPGKGLEWVSGIVSSGGSTAYADSVKGRFTISRDNSKNTLYLQMNSLRAEDTAVYYCAGELLPYYGMDVWGQGTTVTVSSGGGGSGGGGSGGGGSQSELTQPRSVSGSPGQSVTISCTGTSRDVGGYNYVSWYQQHPGKAPKLIIHDVIERSSGVPDRFSGSKSGNTASLTISGLQAEDEADYYCWSFAGSYYVFGTGTDVTVL | 8.1 | 0.43 | 0.32 | 5.22 | 0.38 | 2.01 | 1.53 | 1.08 | 0.39 | 3.74 | – | – | – | – | – | – | – | – | –
NYC-0004 (scFv, not shown: small tags and cut ends, also called T1 scFv; NYC-0004 tag adduct) scFv: EVQLLESGGGLVQPGGSLRLSCAASGFTFSTYQMSWVRQAPGKGLEWVSGIVSSGGSTAYADSVKGRFTISRDNSKNTLYLQMNSLRAEDTAVYYCAGELLPYYGMDVWGQGTTVTVSSGGGGSGGGGSGGGGSQSELTQPRSVSGSPGQSVTISCTGTERDVGGYNYVSWYQQHPGKAPKLIIHDVIERSSGVPDRFSGSKSGNTASLTISGLQAEDEADYYCWSFAGGYYVFGTGTDVTVL | 2.8 | 0.43 | 0.32 | 9.19 | 0.39 | 1.98 | 3.41 | 0.49 | 0.37 | 6.02 | – | – | – | – | – | – | – | – | –
NYA-0001 (scFv, also called NYA-0001 tag adduct; NY-R119 expressed in a cultured mammalian cell) scFv: GEVQLVESGGGVVQPGRSLTPSCSASGFSIRSYDIHWVRQAPGKGLEWVATISYDGSQKYFADSVKGRFTIFRDESENMVYLQMSGLRVEDTAVYHCARGSSGHYEAFDIWGQGTMVTVSSGGGGSGGGGSGGGGSQSVLTQPPSVSAAPGQKVTISCSGSSSNIGNNYVSWYQQLPGTAPKLLIYDNNKRPSGIPDRFSGSKSGTSATLGITGLQTGDEADYYCGTWDSSLSAPWVFGGGTKVTVLGAAAGAGGDYKDDDDKGAAAHHHHHH | 33.8 | 0.42 | 0.31 | 5.12 | 0.37 | 0.73 | 0.33 | 0.48 | 0.43 | 5.75 | no binding (tested: 100 nM) | no binding (tested: 100 nM) | no binding (tested: 100 nM) | no binding (tested: 100 nM) | no binding (tested: 100 nM) | – | – | – | –
NYA-1163 (scFv) scFv: GEVQLVESGGGVVQPGRSLTPSCSASGFSIRSYDIHWVRLAPGKGLEWVATISYDGSQKYFADSVKGRFTIFRDESENMVYLQMSGLRVEDTAVYHCARGSSGHYEAFDIWGQGTMVTVSSGGGGSGGGGSGGGGSQSVLTQPPSVSAAPGQKVTISCSGSSSNIGNNYVSWYQQLPGTAPKLLIYDNNKRPSGIPDRFSGSKSGTSATLGITGLQTGDEADYYCGTWDSSLSAPWVFGGGTKVTVLGAAAGAGGDYKDDDDKGAAAHHHHHH | 13 | 0.41 | 0.3 | 4.21 | 0.36 | 0.69 | 0.31 | 0.46 | 0.44 | 3.67 | no binding (tested: 100 nM) | no binding (tested: 100 nM) | no binding (tested: 100 nM) | no binding (tested: 100 nM) | no binding (tested: 100 nM) | – | – | – | –
NYA-1154 (scFv) scFv: GEVQLVESGGGVVQPGRSLTPSCSASGFSIRSYDMHWVRQAPGKGLEWVATISYDGSQKYFADSVKGRFTIFRDESENMVYLQMSGLRVEDTAVYHCARGSSNHYEAFDIWGQGTMVTVSSGGGGSGGGGSGGGGSQSVLTQPPSVSAAPGQKVTISCSGSSSNIGNNYVSWYQRLPGTAPKLLIYDNNKRPSGIPDRFSGSKSGTSATLGITGLQTGDEADYYCGAWDSSLSAPWVFGGGTKVTVLGAAAGAGGDYKDDDDKGAAAHHHHHH | – | 0.51 | 0.31 | 13.8 | 0.46 | 0.65 | 2.72 | 0.54 | 0.46 | 9.98 | – | – | – | – | – | no binding (tested: 100 nM) | no binding (tested: 100 nM) | no binding (tested: 100 nM) | no binding (tested: 100 nM)
NYA-2023 (scFv) scFv: GEVQLVESGGGVVQPGRSLTPSCSASGFSIRSYDIHWVRQAPGKGLEWVATISYDGSQKYFADSVKGRFTIFRDESENMVYLQMSGLRVEDTAVYHCARGSSGHYEAFDIWGQGTMVTVSSGGGGSGGGGSGGGGSQSVLTQPPSVSAAPGQKVTISCSGSSSNIGNWYVSWYQQLPGTAPKLLIYDNNKRPSGIPDRFSGSKSGTSATLGITGLQTGDEADYYCGTWDSSLSAPWVFGGGTKVTVLGAAAGAGGDYKDDDDKGAAAHHHHHH | 2.4 | 0.42 | 0.3 | 10.1 | 0.42 | 0.7 | 0.42 | 0.48 | 0.4 | 8.85 | no binding (tested: 100 nM) | no binding (tested: 100 nM) | no binding (tested: 100 nM) | no binding (tested: 100 nM) | no binding (tested: 100 nM) | – | – | – | –
NYA-1143 (scFv) scFv: GEVQLVESGGGVVQPGRSLTPSCSASGFSIRSYDIHWVRLAPGKGLEWVATISYDGSQKYFADSVKGRFTIFRDESENMVYLQMSGLRVEDTAVYHCARGSSGHYEAFDIWGQGTMVTVSSGGGGSGGGGSGGGGSQSVLTQPPSVSAAPGQKVTISCSGSSSNIGNWYVSWYQQLPGTAPKLLIYDNNKRPSGIPDRFSGSKSGTSATLGITGLQTGDEADYYCGTWDSSLSAPWVFGGGTKVTVLGAAAGAGGDYKDDDDKGAAAHHHHHH | 1 | 0.42 | 0.3 | 13.4 | 0.37 | 0.69 | 0.32 | 0.46 | 0.41 | 12.9 | no binding (tested: 100 nM) | no binding (tested: 100 nM) | no binding (tested: 100 nM) | no binding (tested: 100 nM) | no binding (tested: 100 nM) | – | – | – | –
NYA-2027 (scFv) scFv: GEVQLVESGGGVVQPGRSLTPSCSASGFSIRSYDIHWVRQAPGKGLEWVATISYDGSQKYFADSVKGRFTIFRDESENMVYLQMSGLRVEDTAVYHCARGSSGHYEAFDIWGQGTMVTVSSGGGGSGGGGSGGGGSQSVLTQPPSVSAAPGQKVTISCSGSSSNIGNNYVSWYQQLPGTAPKLLIYDNNKRPSGIPDRFSGSKSGTSATLGITGLQTGDEADYYCGSWDSSLSAPWVFGGGTKVTVLGAAAGAGGDYKDDDDKGAAAHHHHHH | 11.2 | 0.42 | 0.31 | 7.25 | 0.39 | 0.7 | 0.32 | 0.51 | 0.41 | 5.75 | no binding (tested: 100 nM) | no binding (tested: 100 nM) | no binding (tested: 100 nM) | no binding (tested: 100 nM) | no binding (tested: 100 nM) | – | – | – | –
